Measured values taken from patent US11959134, “Methods of determining nucleic acid structural information” (Bionano Genomics, Inc.).

What was measured:
[1] = molecular target: T1, M.BseCI DNA adenine methyltransferase (UniProt P43423 P43423:1-579); experiment: labeling with Atto532AdoY, 22x enzyme excess over sites, 55 C, 5 h; labeled DNA assembled into single contig aligned to reference
Protocol: A solution (40 ul) of E. coli DNA (500 ng), M.BseCI (22× excess over DNA sites) and Atto532AdoY (40 uM) in 10 mM Tris-HCl, 10 mM EDTA, and 5 mM beta-mercaptoethanol, pH 7.4 were mixed with 4 uL NaOH (0.1M). The solution was incubated for 5 h at 55° C. Proteinase K (1 ul) was added and the solution incubated for 1 h at 37° C. The DNA was dialyzed against 1×TE buffer and stained with YOYO-1 to a final concentration of 3.5-5 ng/ul.
A freshly prepared solution (4 ul) of 4-nitrobenzoic alcohol (1.4 mM), Trolox (1.4 mM), protocatechuate-3,4-dioxygenase (0.36 uM), protocatechuic acid (50 ug) was mixed with stained E. coli DNA of Example 7, 1× flow buffer and Tris (25 mM) and NaCl (10 mM) were added. The sample was loaded onto an IrysChip™ and imaged using the Irys™ instrument.
The E. coli DNA of Examples 7 and 8 was assembled and compared to a reference genome. The labeled E. coli DNA assembled into a single contig (FIG. 5, right contig) and aligned to a reference contig sequence (FIG. 5, left contig).

[2] = molecular target: T1, M.BseCI DNA adenine methyltransferase; experiment: sequence-specific covalent labeling with Atto532AdoY cofactor seen in nanochannels; 285 nM enzyme, 10 mM Tris-HCl, 10 mM EDTA, 5 mM beta-mercaptoethanol, pH 7.4, 55 C, 5 h
Protocol: A solution (40 ul) of 2 uL T7 DNA (500 ng/ul), M.BseCI (285 nM) and Atto532AdoY (40 uM) in 10 mM Tris-HCl, 10 mM EDTA, and 5 mM β-mercaptoethanol, pH 7.4 were mixed with 4 uL NaOH (0.1M). The solution was incubated for 5 h at 55° C. Proteinase K (1 ul) was added and the solution incubated for 1 h at 37° C. DNA was ethanol precipitated and redissolved in 1×TE buffer (10 ul).
For DNA staining of the T7 DNA labeled in Example 5, above, a solution (50 ul) of DNA (10 ng/ul), YOYO-1 (500 nM) in 1× flow buffer was incubated for 4 h at 4° C. Subsequently, a freshly prepared solution (4 ul) of 4-nitrobenzoic alcohol (1.4 mM), Trolox (1.4 mM), protocatechuate-3,4-dioxygenase (0.36 uM), protocatechuic acid (50 ug) was mixed with 10 uL of the stained DNA (above) and was loaded onto an IrysChip™ and imaged using the Irys™ instrument. FIG. 4 represents an example of imaged, labeled T7 DNA molecules.

T1 sequence (P43423 whole entry, one chain of several): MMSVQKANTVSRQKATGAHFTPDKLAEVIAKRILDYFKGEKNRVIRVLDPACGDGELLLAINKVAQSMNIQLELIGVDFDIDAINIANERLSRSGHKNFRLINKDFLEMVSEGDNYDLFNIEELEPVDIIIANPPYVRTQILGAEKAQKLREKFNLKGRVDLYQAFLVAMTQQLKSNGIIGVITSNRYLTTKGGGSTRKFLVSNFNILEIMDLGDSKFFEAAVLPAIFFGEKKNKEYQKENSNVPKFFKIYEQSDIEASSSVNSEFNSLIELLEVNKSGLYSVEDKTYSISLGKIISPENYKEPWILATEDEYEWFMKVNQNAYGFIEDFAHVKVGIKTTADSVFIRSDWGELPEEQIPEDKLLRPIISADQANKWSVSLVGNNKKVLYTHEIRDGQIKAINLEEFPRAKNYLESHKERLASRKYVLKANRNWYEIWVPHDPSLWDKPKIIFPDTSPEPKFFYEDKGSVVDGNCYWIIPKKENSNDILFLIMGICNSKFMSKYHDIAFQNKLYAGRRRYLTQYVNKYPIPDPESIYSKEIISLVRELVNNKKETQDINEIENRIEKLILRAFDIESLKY

| Binder | binding result [1] | binding result [2] |
| --- | --- | --- |
| E. coli genomic DNA containing M.BseCI sites (dsDNA) DNA 1: ATCGAT DNA 2: ATCGAT | binds | – |
| T7 phage genomic DNA containing three M.BseCI sites (dsDNA) DNA 1: ATCGAT DNA 2: ATCGAT | – | binds |
